{"source": "paper PMC10323027", "about": "“Glucagon-like peptide 1 aggregates into low-molecular-weight oligomers off-pathway to fibrillation” (Biophysical Journal, 2023)", "target": "the molecule itself", "assay": "SEC; peptide at 43, 85 or 150 uM incubated in aqueous buffer at pH 7.0 or 8.0 at 37°C with 180 rpm agitation, aliquots filtered (0.22 um) and run on Superose 12 10/300 or Superdex 75 10/300 at room temperature, 0.75 mL/min, elution buffer as incubation buffer; oligomer size from calibration with globular protein standards", "note": "Values joined by “and” are separate entries in the source; they are usually repeats but may differ in a detail not shown here. Equal entries are not always repeated.", "data": [{"protein": "HAEGTFTSDVSSYLEGQAAKEFIAWLVKGRG (Glucagon-like peptide 1 (7-37), 31-residue peptide hormone cut from proglucagon; free C-terminus (-OH); 3355 Da; Forms non-covalent low-molecular-weight oligomers of varying size; written as the single chain)", "note": "[Glucagon-like peptide 1, GLP-1(7–37)]", "values": [{"measurement": "stoichiometry N", "result": "3 and 5"}]}]}
